Reference: PMC8904830, “Differential recognition of canonical NF-κB dimers by Importin α3” (Nature Communications, 2022)

B1: NF-κB p65 (residues 1-306) (domain or fragment, human, UniProt Q04206 1-306, looked up)
chain: MDELFPLIFPAEPAQASGPYVEIIEQPKQRGMRFRYKCEGRSAGSIPGERSTDTTKTHPTIKINGYTGPGTVRISLVTKDPPHRPHPHELVGKDCRDGFYEAELCPDRCIHSFQNLGIQCVKKRDLEQAISQRIQTNNNPFQVPIEEQRGDYDLNAVRLCFQVTVRDPSGRPLRLPPVLSHPIFDNRAPNTAELKICRVNRNSGSCLGGDEIFLLCDKVQKEDIEVYFTGPGWEARGSFSQADVHRQVAIVFRTPPYADPSLQAPVRVSMQLRRPSDRELSEPMEFQYLPDTDDRHRIEEKRKRTY
notes: NF-κB p65 (RelA), human, residues 1-306 (Rel homology region with the C-terminal NLS), untagged; also called RelA; p65 RHR; source: E. coli BL21 DE3, purified (polyethyleneimine and ammonium sulfate precipitation, HiTrap SP, Superdex 200)
B2: NF-κB p50 (residues 1-366) (domain or fragment, human, UniProt P19838 1-366, looked up)
chain: MAEDDPYLGRPEQMFHLDPSLTHTIFNPEVFQPQMALPTDGPYLQILEQPKQRGFRFRYVCEGPSHGGLPGASSEKNKKSYPQVKICNYVGPAKVIVQLVTNGKNIHLHAHSLVGKHCEDGICTVTAGPKDMVVGFANLGILHVTKKKVFETLEARMTEACIRGYNPGLLVHPDLAYLQAEGGGDRQLGDREKELIRQAALQQTKEMDLSVVRLMFTAFLPDSTGSFTRRLEPVVSDAIYDSKAPNASNLKIVRMDRTAGCVTGGEEIYLLCDKVQKDDIQIRFYEEEENGGVWEGFGDFSPTDVHRQFAIVFKTPKYKDINITKPASVFVQLRRKSDLETSEPKPFLYYPEIKDKEEVQRKRQKL
notes: NF-κB p50, human, residues 1-366 (Rel homology region with the C-terminal NLS); also called p50 RHR; source: E. coli BL21 DE3, purified (Glutathione Resin, PreScission cleavage, Superdex 200)
B3: ΔNLS-p65 (residues 1-290) (domain or fragment, human, UniProt Q04206 1-290, looked up)
chain: MDELFPLIFPAEPAQASGPYVEIIEQPKQRGMRFRYKCEGRSAGSIPGERSTDTTKTHPTIKINGYTGPGTVRISLVTKDPPHRPHPHELVGKDCRDGFYEAELCPDRCIHSFQNLGIQCVKKRDLEQAISQRIQTNNNPFQVPIEEQRGDYDLNAVRLCFQVTVRDPSGRPLRLPPVLSHPIFDNRAPNTAELKICRVNRNSGSCLGGDEIFLLCDKVQKEDIEVYFTGPGWEARGSFSQADVHRQVAIVFRTPPYADPSLQAPVRVSMQLRRPSDRELSEPMEFQYLP
notes: NF-κB p65 (RelA), human, residues 1-290 (stop codon at position D291), lacking the C-terminal NLS, untagged; source: E. coli BL21 DE3, purified (polyethyleneimine and ammonium sulfate precipitation, HiTrap SP, Superdex 200)
B4: ΔDBD-p65 (residues 191-316) (domain or fragment, human, UniProt Q04206 191-316, looked up)
chain: TAELKICRVNRNSGSCLGGDEIFLLCDKVQKEDIEVYFTGPGWEARGSFSQADVHRQVAIVFRTPPYADPSLQAPVRVSMQLRRPSDRELSEPMEFQYLPDTDDRHRIEEKRKRTYETFKSIMKKS
notes: also called p65 dimerization domain; source: E. coli BL21 DE3, purified (Glutathione Resin, PreScission cleavage, Superdex 200)
B5: IκBα (residues 67-287) (domain or fragment, UniProt P25963 67-287, looked up)
chain: KQQLTEDGDSFLHLAIIHEEKALTMEVIRQVKGDLAFLNFQNNLQQTPLHLAVITNQPEIAEALLGAGCDPELRDFRGNTPLHLACEQGCLASVGVLTQSCTTPHLHSILKATNYNGHTCLHLASIHGYLGIVELLVSLGADVNAQEPCNGRTALHLAVDLQNPDLVSLLLKCGADVNRVTYQGYSPYQLTWGRPSTRIQQQLGQLTLENLQMLPESEDEE
notes: IκBα, residues 67-287, untagged; source: recombinant, expressed and purified as previously described (pET-11a)
B6: ΔDBD-p50 (residues 243-366) (domain or fragment, human, UniProt P19838 243-366, looked up)
chain: KAPNASNLKIVRMDRTAGCVTGGEEIYLLCDKVQKDDIQIRFYEEEENGGVWEGFGDFSPTDVHRQFAIVFKTPKYKDINITKPASVFVQLRRKSDLETSEPKPFLYYPEIKDKEEVQRKRQKL
notes: also called p50 dimerization domain; source: E. coli BL21 DE3, purified (Glutathione Resin, PreScission cleavage, Superdex 200)
B7: ΔNLS-p50 (residues 41-351) (domain or fragment, human, UniProt P19838 41-351, looked up)
chain: GPYLQILEQPKQRGFRFRYVCEGPSHGGLPGASSEKNKKSYPQVKICNYVGPAKVIVQLVTNGKNIHLHAHSLVGKHCEDGICTVTAGPKDMVVGFANLGILHVTKKKVFETLEARMTEACIRGYNPGLLVHPDLAYLQAEGGGDRQLGDREKELIRQAALQQTKEMDLSVVRLMFTAFLPDSTGSFTRRLEPVVSDAIYDSKAPNASNLKIVRMDRTAGCVTGGEEIYLLCDKVQKDDIQIRFYEEEENGGVWEGFGDFSPTDVHRQFAIVFKTPKYKDINITKPASVFVQLRRKSDLETSEPKPFLYYP
notes: NF-κB p50, human, residues 41-351, lacking the C-terminal NLS, untagged; also called p50-ΔNLS; source: E. coli BL21 DE3, purified (polyethyleneimine and ammonium sulfate precipitation, HiTrap SP, Superdex 200)

Experiments:
[1] = biological target: ΔDBD-p50/p65 heterodimer (human) (UniProt P19838); test: SEC; trimeric complex assembled from purified ΔIBB-importin α3 and ΔDBD-p50/p65; peak fraction analysed by SDS-PAGE and native agarose gel
[2] = biological target: T1, NF-κB p50/p65 heterodimer (human, UniProt P19838 1-366; Q04206 1-306); test: SEC-SAXS; pre-assembled NF-κB dimer:ΔIBB-importin α3 complexes at 4.5-6.6 mg/ml on Superdex 200 10/300 GL; 20 mM Tris-HCl pH 7.0-7.5, 0.15-0.175 M NaCl, glycerol, 0.5 mM TCEP, 4 °C; mass from volume of correlation
T1 construct: NF-κB p50, human, residues 1-366; NF-κB p65 (RelA), human, residues 1-306, untagged; also called wild-type NF-κB; source: subunits from E. coli BL21 DE3, purified; assembled by incubating p50:p65 at 1:1.5 molar ratio; copies: 1 + 1

[3] = biological target: NF-κB p65/p65 homodimer (human) (UniProt Q04206); test: as above
[4] = biological target: NF-κB p50/p50 homodimer (human) (UniProt P19838); test: as above
[5] = biological target: ΔIBB-importin α3 (tag not told for these experiments) (human) (UniProt O00629); test: native gel or EMSA; increasing molar excess of pre-assembled p50/p65 added to a fixed 10 μg (~108 pmoles) of ΔIBB-importin α1 or α3; 1.5% agarose gel, 4 °C, 2 h at 50 V, Coomassie
Chain of ΔIBB-importin α3 (tag not told for these experiments) (human) (O00629 68-487, stated change not applied): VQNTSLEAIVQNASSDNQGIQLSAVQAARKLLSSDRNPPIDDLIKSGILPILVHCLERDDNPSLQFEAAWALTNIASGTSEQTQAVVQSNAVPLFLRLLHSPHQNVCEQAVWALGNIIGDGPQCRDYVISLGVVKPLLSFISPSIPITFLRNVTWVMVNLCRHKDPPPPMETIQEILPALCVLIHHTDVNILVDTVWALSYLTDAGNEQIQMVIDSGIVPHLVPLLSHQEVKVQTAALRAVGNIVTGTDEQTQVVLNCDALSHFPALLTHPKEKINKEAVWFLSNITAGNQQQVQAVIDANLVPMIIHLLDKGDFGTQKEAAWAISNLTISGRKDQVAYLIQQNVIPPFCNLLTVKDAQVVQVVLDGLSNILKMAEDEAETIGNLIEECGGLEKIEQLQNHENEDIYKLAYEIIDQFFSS

[6] = biological target: ΔIBB-importin α1 (tag not told for this experiment) (human) (UniProt P52292); test: as above
[7] = biological target: p50/ΔNLS-p65 heterodimer (human) (UniProt P19838); test: ELISA; NF-κB hetero/homodimers (200 ng) coated on MaxiSorp plates; His-importin α 1000 to 0 nM in PBST, room temperature 1 h; anti-6xHis-HRP; one-site specific binding fit
[8] = biological target: T1, NF-κB p50/p65 heterodimer; test: as above
[9] = biological target: NF-κB p65/p65 homodimer (human) (UniProt Q04206); test: as above
[10] = biological target: NF-κB p50/p50 homodimer (human) (UniProt P19838); test: as above
[11] = biological target: the molecule itself; test: SEC; homodimeric NF-κB complexes concentrated and injected on Superdex 200 16/60 in 20 mM Tris-HCl pH 7.5, 150 mM NaCl, 5 mM β-mercaptoethanol, 2% glycerol
[12] = biological target: B2; test: assembly of heterodimers by co-incubation; purified p50 and p65 constructs incubated at 1:1.5 p50:p65 molar ratio, 25 °C 30 min, 37 °C 1 h, centrifuged at 12,000 x g; settings: both partners purified
[13] = biological target: B7; test: as above; settings: both partners purified
[14] = biological target: T1, NF-κB p50/p65 heterodimer; test: native gel or EMSA; purified IκBα titrated against ~130 pmoles of pre-formed p50/p65 (Fig. 4a lanes 5-10); 1 h at 4 °C; 1.5% agarose gel; settings: both partners purified
[15] = biological target: B1; test: assembly of heterodimers by co-incubation; purified p50 and p65 constructs incubated at 1:1.5 p50:p65 molar ratio, 25 °C 30 min, 37 °C 1 h, centrifuged at 12,000 x g; settings: both partners purified

Molecule: ΔIBB-importin α3 (tag not told for these experiments) (from UniProt O00629 68-487) (domain or fragment)
- stoichiometry N [1]: 1
- stoichiometry N [2]: 1
- stoichiometry N [3]: 1
- stoichiometry N [4]: 2

Molecule: NF-κB p50/p65 heterodimer (from UniProt P19838 1-366; Q04206 1-306) (complex)
- stoichiometry N [5]: 1
- stoichiometry N [6]: 1

Molecule: His-ΔIBB-importin α3 (from UniProt O00629 68-487) (domain or fragment)
- Kd [7]: 59.6 nM
- Kd [8]: 45.8 nM
- Kd [9]: 35.2 nM
- Kd [10]: 15.4 nM

Molecule: B1
- binding result [11]: binds
- binding result [12]: binds
- binding result [13]: binds

Molecule: B2
- binding result [11]: binds

Molecule: B3
- binding result [11]: binds
- binding result [12]: binds
- binding result [13]: binds

Molecule: B4
- binding result [11]: binds

Molecule: B5
- stoichiometry N [14]: 1

Molecule: B6
- binding result [11]: binds
- binding result [15]: binds

Molecule: B7
- binding result [11]: binds
